Test results reported in article PMC4705532, ““Click on the bidirectional switch”: the aptasensor for simultaneous detection of lysozyme and ATP with high sensitivity and high selectivity”.

T1: papain (UniProt P00784 134-345)
T1 sequence: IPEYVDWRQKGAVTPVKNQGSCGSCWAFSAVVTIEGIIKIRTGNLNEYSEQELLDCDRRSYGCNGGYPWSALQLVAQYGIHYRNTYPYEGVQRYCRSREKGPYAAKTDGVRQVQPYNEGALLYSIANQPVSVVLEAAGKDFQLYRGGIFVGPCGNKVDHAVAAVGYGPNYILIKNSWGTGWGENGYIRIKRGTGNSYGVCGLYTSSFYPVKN

B1: Lapt (lysozyme aptamer) (ssDNA)
DNA: ATCTACGAATTCATCAGGGCTAAAGAGTGCAGAGTTACTTAGACCTTCCTCCGCAATACTCCCCCAGGTT
B2: Lapt≈Aapt duplex (with methyl violet) (dsDNA)
DNA 1: B1 DNA
DNA 2: AACCTGGGGGAGTATTGCGGAGGAAGGTCTAAGTAACTCTGCACTCTTTAGCCCTGATGAATTCGTAGAT

Key:
lysozyme [1] = molecular target: T2, lysozyme (UniProt P00698 19-147); test: resonance light scattering; 10 mM Tris pH 7.4, 2.0 uM methyl violet (duplex sensor), target binding 20 min at 37 °C; salt not stated; details: protein: commercial
thrombin = thrombin (UniProt P00734;P00734 328-363;364-622); test: resonance light scattering; 2.0 uM methyl violet; 100-fold excess; 10 mM Tris pH 7.4, 2.0 uM methyl violet (duplex sensor), target binding 20 min at 37 °C; salt not stated
ovalbumin = ovalbumin (UniProt P01012 2-386); test: as above; details: protein: commercial; blunt
papain = molecular target: T1, papain; test: as above; details: protein: commercial; blunt
lysozyme [2] = molecular target: T2, lysozyme; test: resonance light scattering; 2.0 uM methyl violet; lysozyme said to open the duplex and bind Lapt; 10 mM Tris pH 7.4, 2.0 uM methyl violet (duplex sensor), target binding 20 min at 37 °C; salt not stated; details: protein: commercial; blunt

T2 sequence (P00698 19-147): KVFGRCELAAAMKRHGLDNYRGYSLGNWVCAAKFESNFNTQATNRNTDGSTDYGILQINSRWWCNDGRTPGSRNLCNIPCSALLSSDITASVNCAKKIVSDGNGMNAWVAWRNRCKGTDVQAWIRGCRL
ovalbumin, sequence (P01012 2-386): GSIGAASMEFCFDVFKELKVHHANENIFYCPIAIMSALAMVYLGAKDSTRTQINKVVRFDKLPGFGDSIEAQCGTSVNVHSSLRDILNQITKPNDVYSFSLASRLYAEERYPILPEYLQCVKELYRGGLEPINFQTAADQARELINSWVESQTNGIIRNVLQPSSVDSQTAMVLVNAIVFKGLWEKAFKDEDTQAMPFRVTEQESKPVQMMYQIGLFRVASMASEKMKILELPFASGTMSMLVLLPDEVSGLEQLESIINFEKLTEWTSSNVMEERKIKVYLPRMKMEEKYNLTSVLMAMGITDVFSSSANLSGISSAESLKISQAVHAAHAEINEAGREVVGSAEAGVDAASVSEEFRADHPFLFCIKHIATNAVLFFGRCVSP

Binder | binding result (lysozyme [1]) | binding result (thrombin) | binding result (ovalbumin) | binding result (papain) | binding result (lysozyme [2])
B1 | binds |  |  |  | 
B2 |  | no binding | no binding | no binding | binds
